Results: patent US20240263191

Target: KLF15 (hKLF15) (Homo sapiens) (UniProt Q9UIH9)
Assay: cell_activity
Conditions: AAV8-GNAT1-hKLF15 subretinal in pig, 2x10^10 gc, 15 days; 38% repression of protein

Sequence of KLF15 (hKLF15) (Homo sapiens) (Q9UIH9 whole entry): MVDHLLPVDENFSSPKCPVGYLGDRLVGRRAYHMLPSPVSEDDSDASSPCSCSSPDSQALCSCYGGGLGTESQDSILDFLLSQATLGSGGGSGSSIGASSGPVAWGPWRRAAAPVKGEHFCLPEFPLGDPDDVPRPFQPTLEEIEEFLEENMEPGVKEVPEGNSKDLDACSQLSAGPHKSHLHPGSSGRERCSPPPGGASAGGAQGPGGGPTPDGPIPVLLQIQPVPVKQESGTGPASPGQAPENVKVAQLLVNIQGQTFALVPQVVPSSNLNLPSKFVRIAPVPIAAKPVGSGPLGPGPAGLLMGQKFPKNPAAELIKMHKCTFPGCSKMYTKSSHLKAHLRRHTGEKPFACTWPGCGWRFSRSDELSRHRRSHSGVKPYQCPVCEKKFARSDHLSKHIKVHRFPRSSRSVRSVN

Work on “endogenous porcine Rho promoter (hRHO-cis highly conserved)” yielded an activity (% repression of Rho transcript) of 45.
